Reference: US20250003951A1 (OXFORD UNIVERSITY INNOVATION, published 2025)

T1: OX747-157 (human)
T1 peptide: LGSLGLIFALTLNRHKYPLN

T2: OX747-158 (human)
T2 peptide: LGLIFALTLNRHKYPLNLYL

T3: OX1149-190 (human)
T3 peptide: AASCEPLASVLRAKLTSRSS


Assays:
Test in all cases: cell-based or functional assay
OX747-157 = target: T1, OX747-157
OX747-158 = target: T2, OX747-158
OX1149-190 = target: T3, OX1149-190

Binder	Clone size (percent repertoire), IFNγ+ sorted T cells after peptide stimulation (OX747-157)	Clone size (percent repertoire), IFNγ+ sorted T cells after peptide stimulation (OX747-158)	Clone size (percent repertoire), IFNγ+ sorted T cells after peptide stimulation (OX1149-190)
OX747 Peptides 157/158 clone 4 TCR (TCR, V domains shown) V domain 1: AQKVTQAQTEISVVEKEDVTLDCVYETRDTTYYLFWYKQPPSGELVFLIRRNSFDEQNEISGRYSWNFQKSTSSFNFTITASQVVDSAVYFCALSEMNRDDKIIFGKGTRLHILP V domain 2: NAGVMQNPRHLVRRRGQEARLRCSPMKGHSHVYWYRQLPEEGLKFMVYLQKENIIDESGMPKERFSAEFPKEGPSILRIQQVVRGDSAAYFCASSPTGVSGNTIYFGEGSWLTVVE	7.9 % of repertoire	7.9 % of repertoire	–
OX747 Peptides 157/158 clone 5 TCR (TCR, V domains shown) V domain 1: GQQLNQSPQSMFIQEGEDVSMNCTSSSIFNTWLWYKQDPGEGPVLLIALYKAGELTSNGRLTAQFGITRKDSFLNISASIPSDVGIYFCAGQQKTSGSRLTFGEGTQLTVNP V domain 2: DGGITQSPKYLFRKEGQNVTLSCEQNLNHDAMYWYRQDPGQGLRLIYYSQIVNDFQKGDIAEGYSVSREKKESFPLTVTSAQKNPTAFYLCASSSPRDRVGQPQHFGDGTRLSILE	7.7 % of repertoire	7.7 % of repertoire	–
OX747 Peptides 157/158 clone 3 TCR (TCR, V domains shown) V domain 1: QKEVEQNSGPLSVPEGAIASLNCTYSDRGSQSFFWYRQYSGKSPELIMFIYSNGDKEDGRFTAQLNKASQYVSLLIRDSQPSDSATYLCAGRQTSYDKVIFGPGTSLSVIP V domain 2: not shown	8.7 % of repertoire	8.7 % of repertoire	–
OX747 Peptides 157/158 clone 2 TCR (TCR, V domains shown) V domain 1: AQKVTQAQTEISVVEKEDVTLDCVYETRDTTYYLFWYKQPPSGELVFLIRRNSFDEQNEISGRYSWNFQKSTSSFNFTITASQVVDSAVYFCALSEATYNTDKLIFGTGTRLQVFP V domain 2: ETGVTQSPTHLIKTRGQQVTLRCSSQSGHNTVSWYQQALGQGPQFIFQYYREEENGRGNFPPRFSGLQFPNYSSELNVNALELDDSALYLCASSSTGTDYGYTFGSGTRLTVVE	9.8 % of repertoire	9.8 % of repertoire	–
OX747 Peptides 157/158 clone 1 TCR (TCR) TCR alpha 1: KNEVEQSPQNLTAQEGEFITINCSYSVGISALHWLQQHPGGGIVSLFMLSSGKKKHGRLIATINIQEKHSSLHITASHPRDSAVYICAVSTGGATNKLIFGTGTLLAVQPNIQNPDPAVYQLRD TCR alpha 2: KNEVEQSPQNLTAQEGEFITINCSYSVGISALHWLQQHPGGGIVSLFMLSSGKKKHGRLIATINIQEKHSSLHITASHPRDSAVYICAVQEGETSGSRLTFGEGTQLTVNPDIQNPDPAVYQLRD TCR beta: NAGVTQTPKFQVLKTGQSMTLQCAQDMNHEYMSWYRQDPGMGLRLIHYSVGAGITDQGEVPNGYNVSRSTTEDFPLRLLSAAPSQTSVYFCASSPGFNGNTIYFGEGSWLTVVEDLNKVFPPEVAVFEPS	15.5 % of repertoire	15.5 % of repertoire	–

Further lines, results first:

Clone size (percent repertoire), IFNγ+ sorted T cells after peptide stimulation (OX747-157)	Clone size (percent repertoire), IFNγ+ sorted T cells after peptide stimulation (OX747-158)	Clone size (percent repertoire), IFNγ+ sorted T cells after peptide stimulation (OX1149-190)	Binder
–	–	18.3 % of repertoire	OX1149 Peptide 190 clone 1 TCR (TCR, V domains shown) V domain 1: SQQGEEDPQALSIQEGENATMNCSYKTSINNLQWYRQNSGRGLVHLILIRSNEREKHSGRLRVTLDTSKKSSSLLITASRAADTASYFCATDEAAGNKLTFGGGTRVLVKP V domain 2: EPEVTQTPSHQVTQMGQEVILRCVPISNHLYFYWYRQILGQKVEFLVSFYNNEISEKSEIFDDQFSVERPDGSNFTLKIRSTKLEDSAMYFCASKRESLATGELFFGEGSRLTVLE
–	–	17.3 % of repertoire	OX1149 Peptide 190 clone 2 TCR (TCR, V domains shown) V domain 1: SQQGEEDPQALSIQEGENATMNCSYKTSINNLQWYRQNSGRGLVHLILIRSNEREKHSGRLRVTLDTSKKSSSLLITASRAADTASYFCAAMYSGGGADGLTFGKGTHLIIQP V domain 2: EPEVTQTPSHQVTQMGQEVILRCVPISNHLYFYWYRQILGQKVEFLVSFYNNEISEKSEIFDDQFSVERPDGSNFTLKIRSTKLEDSAMYFCASSTQGQAYEQYFGPGTRLTVTE
